Measurements as given in article PMC3254782.
Like-named read-outs stand apart in the source and are kept apart here. Each block holds one substance with its values, some of them ahead of it.

Columns and labels:
Assay in all cases: immunoprecipitation and Western blot
[1] = target: amyloid-β (Aβ) in brain tissue of Tg2576 mice (human)
[2] = target: amyloid-β (Aβ) secreted by 7PA2 cells
[3] = target: amyloid-β (Aβ) secreted by mature Tg2576 primary cortical neurons (human)
[4] = target: amyloid-β (Aβ) secreted by mature Tg2576 primary cortical neurons (human); remark: listed apart in the source

stoichiometry N [1]: 2
Substance: amyloid-β (Aβ) in brain tissue of Tg2576 mice (peptide)

stoichiometry N [2]: 2
Substance: amyloid-β (Aβ) secreted by 7PA2 cells (peptide)

stoichiometry N [3]: 3 | stoichiometry N [4]: 2
Substance: amyloid-β (Aβ) secreted by mature Tg2576 primary cortical neurons (peptide)
